{
  "source": "paper PMC10844294",
  "about": "“A monoclonal antibody targeting a large surface of the receptor binding motif shows pan-neutralizing SARS-CoV-2 activity” (Nature Communications, 2024)",
  "binders": {"B1": {"name": "17T2 Fab fragment (Fab, V domains shown)", "VH": "QVQLVQSGPEVKKPGTSVKVSCKAPVFTFSISAVQWVRQARGQRLEWIGWIVVGSGNTNYAQNFQERVTITTDMSTGTVYMELSGLRSEDTAMYYCAAPYCNRTTCYDGFDLWGQGTMVTVSS", "VL": "EIVLTQSPGTLSLSPGERATLSCRASQSISSNYLAWYQQKPGQAPRLLIYGASSRATGIPDRFSGSGSGTDFTLSINRLEPEDFAMYYCQHYGGLSRWTFGQGTKVEIK", "notes": "also called Fab 17T2"}},
  "target": "T1, B.1.1.529 (BA.1) S1 + S2 trimer-His Recombinant Protein (SARS-CoV-2 Omicron BA.1 (B.1.1.529), strain)",
  "T1 construct": "also called Omicron BA.1 trimeric spike; BA.1 spike",
  "assay": "cryo-EM structure",
  "conditions": "both partners purified",
  "data": [
    {"binder": "B1", "values": [
      {"measurement": "stoichiometry N", "result": 3, "unit": "Fab per spike trimer"}
    ]}
  ]
}
